# According to the nanobody polyreactivity screen of Harvey et al. (2022):
# Test: yeast display, Sf9 membrane polyspecificity reagent, FACS + sequencing; frameworks hold sequencing errors
# Outline: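 Synthetic nanobody libraries on Saccharomyces cerevisiae BJ5465 were galactose-induced for 36–48 hours, stained 1 hour at 4 °C with 10% biotinylated, detergent-solubilized Sf9 membrane reagent and enriched on streptavidin microbeads. FACS then separated cells into low and high (top ~1%) gates by anti-HA (expression) and streptavidin (reagent binding) fluorescence. Genes were colony-PCR amplified, MiSeq 2 × 250 sequenced and CDR-length filtered. A clone's polyreactivity label is that of its gate of origin.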
row,Sequence,polyreactivity (PSR sort gate)
1,QVQLVESGGGLFQAGGSLRLICAASGLIINGNAMGWYRQAPGKERELVADITGSSVRTYYADSVKGRFTISRDNAKNTVYLQMNSLKPEDTAVYYCAKDPDKVDYVDMDYWGQGTQVTVSS,low polyreactivity
2,QVQLVESGGGLVQAGGSLRLSCAASGFTIAVYVMGWYRQAPGNERELVATISFSVGSTYYADSVKGRFTISRDNAKNTVYLLMNCLKPEVTAVYYCNADPPPEYYPDKDNSWGQGTQVTVSS,low polyreactivity
3,QVQLVESGGGLVQAGGSLRLSCAASGSIFYLYAMGWYRHAPGKERELVATITVSGSSTYADSVKGRFTISRDNAKNTVYLQMISLKPEDTAVYYCAADGGRQVYTQLYDYWGQGTQVTVSS,low polyreactivity
4,QVQLVESGGGLVQAGGSLSLICAASGFIFLYYAMGWYRQAPGKERELVADISRGADTKYADSVKGRFTISRDNAKNTVYLQMNSLKPEDTAVYYCATDITTFWFPYPGVELGYWGQGTQVTVSS,low polyreactivity
5,QVQLVESGRGLVQAGGSLRLSCAACGRIFYRYTMGSYRQAPGKERELVAAITRGGNTYYADSVKGRFTISRDNANYTVYLQMNSLKPEDTAVYYCAKKAPSDRNNYWGQGTQVTVSS,high polyreactivity
6,QVQLVESGGGLVQAGGSLRLRSPASGSTLYRYAMGWYRQAPGKERELVAAIYSSGGTTFYADSVKGRFTISRDNAKKTVYLQMKSLKPEDTAVYYCNRTARKLRTVHSSVVGLDYWGQGTQVTVSS,low polyreactivity
7,QVQLVESGGGLVQAGGSLRLSCAASGSTFTLNTMGWYRQAPGKERELVAGIRSGGSTYYADSVKGRFTISRDNAKNTVYLQMHSLKPEDTAVYYCAADRRWFAYWFDYWGQGTQVTVSS,low polyreactivity
8,QVQLVESGGGLVQAGGSLRLSCAASGNTFTTNAMGWYRQAPGKERELVAAIRWRADSTYYADSVKGRFTISRDNAKNTVYLQMNSLKPEDTAVYYCASRYSLRYYYWGQGTQVTVSS,low polyreactivity
9,QVQLEDSGGGLVQAGGTLRLRCAASGITFGTNDMGWYRKAPGKETELVAAIDGSGETYYADSVKGRFTISRDNAKNTVYLLMNSLKPVDTAVYYCAADVIYWFSGEYDYWGQGTQVIVSS,low polyreactivity
10,QVQHVESGGGLVQAGGSLRLSCPASGIIIYQYALGSYRQAPGKERELVAAISSGVNTYYADSVKGRFTISRDNAKNTVYLQMNSLKPEDTAVYYCAARLTFGYLRSKFYYWGQGTQVTVSS,high polyreactivity
11,QVQLVESGGGLVQAGGSLRLSCAASGFTFHDYAMGWYRQAPGKERELVAAITKSGGRTYYADSVKGRFTISRDNAKNTVYLQMNSLKPEDTAVYYCAAASYRSQYDYYYWGQGTQVTVSS,high polyreactivity
12,QVQLVESGGGLVQAGGSLRLSCAASGFTFYHNAMGWYRQAPGKERELVAAISGGGDSTYYADSVKGRFTISRDNAKNTVYLQMNSLKPEDTAVYYCATRRYPEVVNGEYGYWGQGTQVTVSS,low polyreactivity
13,QVQLVESGGRLVQAGGSLRLSCAASGRTFHKNAMGWYRQAPGKERELVAAISGSGGSTYYADSVKGRFTISRDNAKNTVYLQMNSLKPEDTAVYYCAADSSYYEEDYWGQGTHVTVSS,high polyreactivity
14,QVQLVESGGGLVQAGGSLRLSCAASGRISRIYAMGWYRQAPGKERELVAAIRGRGGSTYYADSVKGRFTISRDNAKNTVYLQMNSLKPEVTAVYYCAADGWARYEYWGQGTQVTVSS,high polyreactivity
15,QVQLEESGGGLVQAGGSLRLSGAASGRTSDGYAMGWYRQAPGKERELVAGITEGGGDTYYADSVKGRFTMSRDTAKNTVYLQMNSLKPEDPALYYCNAVEGSRLPYDYGGQGTQVTVSS,low polyreactivity
16,QVQLVESGGGLVQAGGSLRLSCAASGRIFGWYAMGWYRQAPGKERELVAAINRGGSTNYADSVKGRFTISRDNAKNTVYLQMNSLSPEDTGVYYCAVRGVHYTAVTNIIYGYGYWGQGTQVTVSS,high polyreactivity
17,QVQLVESGGGLVQAGGSLRLSCAASGSTFYGNMGWYRQAPGKERALVAAITYRGTNTYYADSVKGRFTISRDNAKNTVYLQMNSLKPEDTAVYYCAAEYDVYQGRGRYYGYDYWGQGTQVTVSS,high polyreactivity
